The labels stand for the following.
B1: Zinc finger protein RFP (Homo sapiens), P14373 (parent)
chain: MASGSVAECLQQETTCPVCLQYFAEPMMLDCGHNICCACLARCWGTAETNVSCPQCRETFPQRHMRPNRHLANVTQLVKQLRTERPSGPGGEMGVCEKHREPLKLYCEEDQMPICVVCDRSREHRGHSVLPLEEAVEGFKEQIQNQLDHLKRVKDLKKRRRAQGEQARAELLSLTQMEREKIVWEFEQLYHSLKEHEYRLLARLEELDLAIYNSINGAITQFSCNISHLSSLIAQLEEKQQQPTRELLQDIGDTLSRAERIRIPEPWITPPDLQEKIHIFAQKCLFLTESLKQFTEKMQSDMEKIQELREAQLYSVDVTLDPDTAYPSLILSDNLRQVRYSYLQQDLPDNPERFNLFPCVLGSPCFIAGRHYWEVEVGDKAKWTIGVCEDSVCRKGGVTSAPQNGFWAVSLWYGKEYWALTSPMTALPLRTPLQRVGIFLDYDAGEVSFYNVTERCHTFTFSHATFCGPVRPYFSLSYSGGKSAAPLIICPMSGIDGFSGHVGNHGHSMETSP
partner: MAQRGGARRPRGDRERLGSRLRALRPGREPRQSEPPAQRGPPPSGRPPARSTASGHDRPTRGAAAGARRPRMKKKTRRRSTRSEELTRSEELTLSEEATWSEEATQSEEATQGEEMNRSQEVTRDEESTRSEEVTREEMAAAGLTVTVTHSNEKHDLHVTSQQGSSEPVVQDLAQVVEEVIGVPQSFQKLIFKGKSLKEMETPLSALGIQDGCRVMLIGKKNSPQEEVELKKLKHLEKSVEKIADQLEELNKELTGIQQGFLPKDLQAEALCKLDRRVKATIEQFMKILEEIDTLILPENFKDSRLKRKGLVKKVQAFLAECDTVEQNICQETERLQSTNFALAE
B2: Nucleolar protein 12 (Homo sapiens), Q9UGY1 (parent)
chain: MGRNKKKKRDGDDRRPRLVLSFDEEKRREYLTGFHKRKVERKKAAIEEIKQRLKEEQRKLREERHQEYLKMLAEREEALEEADELDRLVTAKTESVQYDHPNHTVTVTTISDLDLSGARLLGLTPPEGGAGDRSEEEASSTEKPTKALPRKSRDPLLSQRISSLTASLHAHSRKKVKRKHPRRAQDSKKPPRAPRTSKAQRRRLTGKARHSGE
B3: Casein kinase II subunit alpha' (Homo sapiens), P19784 (parent)
chain: MPGPAAGSRARVYAEVNSLRSREYWDYEAHVPSWGNQDDYQLVRKLGRGKYSEVFEAINITNNERVVVKILKPVKKKKIKREVKILENLRGGTNIIKLIDTVKDPVSKTPALVFEYINNTDFKQLYQILTDFDIRFYMYELLKALDYCHSKGIMHRDVKPHNVMIDHQQKKLRLIDWGLAEFYHPAQEYNVRVASRYFKGPELLVDYQMYDYSLDMWSLGCMLASMIFRREPFFHGQDNYDQLVRIAKVLGTEELYGYLKKYHIDLDPHFNDILGQHSRKRWENFIHSENRHLVSPEALDLLDKLLRYDHQQRLTAKEAMEHPYFYPVVKEQSQPCADNAVLSSGLTAAR
B4: Protein BANP (Homo sapiens), Q8N9N5-2 (parent)
chain: MMSEHDLADVVQIAVEDLSPDHPVVLENHVVTDEDEPALKRQRLEINCQDPSIKSFLYSINQTICLRLDSIEAKLQALEATCKSLEEKLDLVTNKQHSPIQVPMVAGSPLGATQTCNKVRCAVPGRRQNTIVVKVPGQEDSHHEDGESGSEASDSVSSCGQAGSQSIGSNVTLITLNSEEDYPNGTWLGDENNPEMRVRCAIIPSDMLHISTNCRTAEKMALTLLDYLFHREVQAVSNLSGQGKHGKKQLDPLTIYGIRCHLFYKFGITESDWYRIKQSIDSKCRTAWRRKQRGQSLAVKSFSRRTPNSSSYCPSEPMMSTPPPASELPQPQPQPQALHYALANAQQVQIHQIGEDGQVQVIPQGHLHIAQVPQGEQVQITQDSEGNLQIHHVGQDGQVLQGAQLIAVASSDPAAAGVDGSPLQGSDIQVQYVQLAPVSDHTAGAQTAEALQPTLQPEMQLEHGAIQIQ
partner: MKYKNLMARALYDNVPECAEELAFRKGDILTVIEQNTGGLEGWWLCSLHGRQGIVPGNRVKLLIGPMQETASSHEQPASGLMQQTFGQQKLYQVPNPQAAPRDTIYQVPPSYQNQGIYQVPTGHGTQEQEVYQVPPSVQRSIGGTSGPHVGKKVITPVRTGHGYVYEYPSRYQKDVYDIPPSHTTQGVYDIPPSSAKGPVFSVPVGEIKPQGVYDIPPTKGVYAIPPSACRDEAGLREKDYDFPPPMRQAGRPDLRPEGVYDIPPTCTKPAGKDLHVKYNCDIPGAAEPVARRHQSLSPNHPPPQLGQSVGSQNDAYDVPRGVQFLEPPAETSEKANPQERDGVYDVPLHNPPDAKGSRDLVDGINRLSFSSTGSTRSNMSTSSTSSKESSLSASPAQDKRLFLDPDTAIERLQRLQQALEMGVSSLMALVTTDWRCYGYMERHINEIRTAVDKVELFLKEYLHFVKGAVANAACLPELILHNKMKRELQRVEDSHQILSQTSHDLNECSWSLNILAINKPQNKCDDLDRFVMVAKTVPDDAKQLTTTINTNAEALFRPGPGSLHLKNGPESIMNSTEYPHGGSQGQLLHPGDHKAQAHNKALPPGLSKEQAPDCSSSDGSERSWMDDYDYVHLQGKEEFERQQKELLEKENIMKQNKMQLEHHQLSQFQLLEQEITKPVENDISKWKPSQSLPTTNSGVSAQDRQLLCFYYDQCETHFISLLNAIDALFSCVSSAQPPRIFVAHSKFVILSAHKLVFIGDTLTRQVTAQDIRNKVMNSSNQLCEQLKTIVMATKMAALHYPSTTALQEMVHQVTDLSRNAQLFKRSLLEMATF
B5: RUN and FYVE domain-containing protein 1 (Homo sapiens), Q96T51-2 (parent)
chain: MMEERANLMHMMKLSIKVLLQSALSLGRSLDADHAPLQQFFVVMEHCLKHGLKVKKSFIGQNKSFFGPLELVEKLCPEASDIATSVRNLPELKTAVGRGRAWLYLALMQKKLADYLKVLIDNKHLLSEFYEPEALMMEEEGMVIVGLLVGLNVLDANLCLKGEDLDSQVGVIDFSLYLKDVQDLDGGKEHERITDVLDQKNYVEELNRHLSCTVGDLQTKIDGLEKTNSKLQEELSAATDRICSLQEEQQQLREQNELIRERSEKSVEITKQDTKVELETYKQTRQGLDEMYSDVWKQLKEEKKVRLELEKELELQIGMKTEMEIAMKLLEKDTHEKQDTLVALRQQLEEVKAINLQMFHKAQNAESSLQQKNEAITSFEGKTNQVMSSMKQMEERLQHSERARQGAEERSHKLQQELGGRIGALQLQLSQLHEQCSSLEKELKSEKEQRQALQRELQHEKDTSSLLRMELQQVEGLKKELRELQDEKAELQKICEEQEQALQEMGLHLSQSKLKMEDIKEVNQALKGHAWLKDDEATHCRQCEKEFSISRRKHHCRNCGHIFCNTCSSNELALPSYPKPVRVCDSCHTLLLQRCSSTAS
partner: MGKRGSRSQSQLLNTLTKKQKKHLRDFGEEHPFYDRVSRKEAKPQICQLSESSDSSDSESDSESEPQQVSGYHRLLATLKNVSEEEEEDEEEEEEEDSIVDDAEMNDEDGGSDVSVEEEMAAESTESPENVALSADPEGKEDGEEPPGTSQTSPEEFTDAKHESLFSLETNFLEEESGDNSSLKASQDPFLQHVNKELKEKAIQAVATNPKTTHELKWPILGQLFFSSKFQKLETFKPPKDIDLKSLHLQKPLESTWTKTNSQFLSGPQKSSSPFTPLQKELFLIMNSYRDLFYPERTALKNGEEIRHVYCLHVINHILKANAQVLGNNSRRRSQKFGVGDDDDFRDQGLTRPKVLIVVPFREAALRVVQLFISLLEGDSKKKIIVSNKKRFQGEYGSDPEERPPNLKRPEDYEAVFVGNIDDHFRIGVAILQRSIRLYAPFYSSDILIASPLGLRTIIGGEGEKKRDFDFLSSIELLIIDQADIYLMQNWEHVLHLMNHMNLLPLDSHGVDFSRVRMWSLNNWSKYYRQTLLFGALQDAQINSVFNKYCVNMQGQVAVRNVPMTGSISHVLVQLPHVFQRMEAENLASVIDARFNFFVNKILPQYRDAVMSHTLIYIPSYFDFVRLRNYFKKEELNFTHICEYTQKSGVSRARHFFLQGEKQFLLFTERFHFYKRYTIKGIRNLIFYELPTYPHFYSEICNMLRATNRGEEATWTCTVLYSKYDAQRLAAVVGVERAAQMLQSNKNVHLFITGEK
B6: Four and a half LIM domains protein 2 (Homo sapiens), Q14192 (parent)
chain: MTERFDCHHCNESLFGKKYILREESPYCVVCFETLFANTCEECGKPIGCDCKDLSYKDRHWHEACFHCSQCRNSLVDKPFAAKEDQLLCTDCYSNEYSSKCQECKKTIMPGTRKMEYKGSSWHETCFICHRCQQPIGTKSFIPKDNQNFCVPCYEKQHAMQCVQCKKPITTGGVTYREQPWHKECFVCTACRKQLSGQRFTARDDFAYCLNCFCDLYAKKCAGCTNPISGLGGTKYISFEERQWHNDCFNCKKCSLSLVGRGFLTERDDILCPDCGKDI
partner: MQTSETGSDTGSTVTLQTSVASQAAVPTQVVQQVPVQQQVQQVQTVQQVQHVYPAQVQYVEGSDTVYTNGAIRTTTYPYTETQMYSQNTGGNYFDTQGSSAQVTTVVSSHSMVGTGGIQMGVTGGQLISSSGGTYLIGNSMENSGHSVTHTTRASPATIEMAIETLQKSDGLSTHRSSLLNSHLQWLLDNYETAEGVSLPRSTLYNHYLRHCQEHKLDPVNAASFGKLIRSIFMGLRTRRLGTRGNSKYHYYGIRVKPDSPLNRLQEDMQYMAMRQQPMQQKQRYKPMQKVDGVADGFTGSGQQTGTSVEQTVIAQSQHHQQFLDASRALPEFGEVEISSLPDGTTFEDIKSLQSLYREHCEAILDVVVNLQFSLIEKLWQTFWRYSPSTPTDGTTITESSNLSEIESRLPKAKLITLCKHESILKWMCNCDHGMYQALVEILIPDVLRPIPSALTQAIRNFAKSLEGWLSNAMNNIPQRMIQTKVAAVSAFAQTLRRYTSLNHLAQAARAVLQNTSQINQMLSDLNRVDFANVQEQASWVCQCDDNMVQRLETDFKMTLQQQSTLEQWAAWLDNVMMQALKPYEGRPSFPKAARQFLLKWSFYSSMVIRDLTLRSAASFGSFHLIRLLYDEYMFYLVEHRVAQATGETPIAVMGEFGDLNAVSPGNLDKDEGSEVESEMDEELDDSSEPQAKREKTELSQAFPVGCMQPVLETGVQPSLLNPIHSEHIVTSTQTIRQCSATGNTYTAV

Variants of B1 are the subject of one experiment. Conditions: with bag1_human BAG1, Q99933.
Regarding N355S, the “effect of a mutation on the interaction” value is reported as “with no effect”.

In the next experiment the parent is B2. To be noted: with cep70_human CEP70, Q8NHQ1.
Sequence of cep70_human CEP70, Q8NHQ1 (Q8NHQ1 whole entry): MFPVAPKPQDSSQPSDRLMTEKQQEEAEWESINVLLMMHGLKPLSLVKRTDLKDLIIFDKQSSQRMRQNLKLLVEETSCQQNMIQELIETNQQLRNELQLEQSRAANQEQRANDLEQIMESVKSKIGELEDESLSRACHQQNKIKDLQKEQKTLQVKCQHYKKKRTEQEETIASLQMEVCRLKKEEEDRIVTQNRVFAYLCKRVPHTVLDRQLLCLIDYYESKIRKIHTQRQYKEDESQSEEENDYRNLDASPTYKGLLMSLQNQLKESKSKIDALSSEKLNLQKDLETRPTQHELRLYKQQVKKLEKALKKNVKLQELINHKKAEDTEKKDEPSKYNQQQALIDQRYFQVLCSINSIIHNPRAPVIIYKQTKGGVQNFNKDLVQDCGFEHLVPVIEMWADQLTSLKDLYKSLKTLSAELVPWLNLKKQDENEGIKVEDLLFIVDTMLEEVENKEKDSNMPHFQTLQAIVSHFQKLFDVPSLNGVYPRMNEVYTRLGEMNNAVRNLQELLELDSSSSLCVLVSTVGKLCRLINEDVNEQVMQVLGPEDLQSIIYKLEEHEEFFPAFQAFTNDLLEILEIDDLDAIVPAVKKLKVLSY
In the case of Y98H, the “effect of a mutation on the interaction” value is on record as “with no effect”.

In a further experiment the parent is B3. To be noted: with tri41_human TRIM41, Q8WV44.
In the case of N63T, the “effect of a mutation on the interaction” value was “with no effect”.

Variants of B4 are the subject of a further experiment. Conditions: with casl_human NEDD9, Q14511.
On to A162V, for which the “effect of a mutation on the interaction” value was “with no effect”.

Variants of B5 are the subject of a further experiment. To be noted: with utp25_human UTP25, Q68CQ4.
On to C159F, for which the “effect of a mutation on the interaction” value is recorded as “with no effect”.

The variants in another experiment derive from B6. Conditions: with rfx3_human RFX3, P48380.
For A37S, the “effect of a mutation on the interaction” value is reported as “with no effect”.

The record behind these values is IntAct's records for PubMed 31515488.
